Experimental data reported in patent publication US20080096225.

Target: microtubules (Example 3)

B1: Drosophila kinesin heavy chain fragment containing amino acids 5-351 with a C-terminal hexahistidine tag (protein)
chain: REIPAEDSIKVVCRFRPLNDSEEKAGSKFVVKFPNNVEENCISIAGKVYLFDKVFKPNASQEKVYNEAAKSIVTDVLAGYNGTIFAYGQTSSGKTHTMEGVIGDSVKQGIIPRIVNDIFNHIYAMEVNLEFHIKVSYYEIYMDKIRDLLDVSKVNLSVHEDKNRVPYVKGATERFVSSPEDVFEVIEEGKSNRHIAVTNMNEHSSRSHSVFLINVKQENLENQKKLSGKLYLVDLAGSEKVSKTGAEGTVLDEAKNINKSLSALGNVISALADGNKTHIPYRDSKLTRILQESLGGNARTTIVICCSPASFNESETKSTLDFGRRAKTVKNVVCVNEELTAEEWKRRHHHHHH
  stimulation of the basal ATPase rate: 1,000-fold stimulation of the basal ATPase rate
